# From patent US20240218057A1 (ROCKEFELLER UNIVERSITY, published 2024)
# Target: SARS-COV-2 RBD (SARS-COV-2, UniProt P0DTC2 319-539)
# Assay: ELISA, RBD coated
row,Binder,EC50 [ng/mL]
1,"C046 (antibody, V domains shown) VH: EVQLVESGGGLAQPGRSLRLSCAASGFTFDDYAMHWVRQAPGKGLEWVSGINWNSGSLGYADSVKGRFTISRGIAKNSLYLQMNSLRPEDTAFYYCAKAGVRGIAAAGPDLNFDYWGQGTLVTVSS VL: EIVLTQSPATLSLSPGERATLSCRASQSVSSYLAWYQQKPGQAPRLLIYDASNRATGIPARFIGSGSGTDFTLTISSLEPEDFAVYYCQQRITFGQGTRLEIK",4.02
2,"C534 (antibody, V domains shown) VH: QVQLVQSGAEVKKPGSSVRVSCKASGGTFSRNVISWVRQAPGQGLEWMGGIIPMFATANYAQKFQGRVTITADESSSTAYMELSSLRSEDTAVYYCAREDFILVSAPIRENSYYYYGMDVWGQGTTVTVSS VL: EIVLTQSPGTLSLSPGERATLSCRASQSVSSNYLAWYQQKPGQAPRLLIYDASSRATGIPDRFSGSGSGTDFTLTISRLEPEDFAVYYCQQYGGSPRTFGQGTKVEIK",4.85
3,"C547 (antibody, V domains shown) VH: QVQLVESGGGVVQPGRSLRLSCAASGFTFSSYGMHWVRQAPGKGLEWVAVISYDGSNKYYADSVKGRFTISRDNSKNTLYLQMNSLRAEDTAVYYCAKDTPGGDDILTGWGLYGMDVWGQGTTVTVSS VL: not shown",1.78
4,"C543 (antibody, V domains shown) VH: QVQLVESGGGVVQPGRSLRLSCTASGFTFSTAGMHWVRQAPGKGLEWVAVISYDGSNKDYADSVKGRFTISRDNSKSTLYLQMNSLRPEDTAVYYCAKDTPGGDDIMTGWGLYGMDVWGQGTTVTVSS VL: DIQMTQSPSSLSASVGDRVTITCRASQSISSYLNWYHQKPGKAPKLLIYAAISLQSGVPSRFSGSGFGTDFTLTISSLQPEDFAIYYCQQSYSTPWTFGQGTKVEIK",1.28
5,"C538 (antibody, V domains shown) VH: QLQLQESGPGLVKPSETLSLTCTVSGGSISSSSYYWAWIRQPPGKGLEWIGNIYYSGITYYSPSLKSRVTISVDTSKNQFSLKLRSVTAADTAVYYCARQHRYGSGSSELLWGQGTLVTVSS VL: QSALTQPPSASGSPGQSVTISCTGTSSDVGSYNYVSWYQQHPGKAPKLMIYEVTKRPSGVPDRFSGSKSGNTASLTVSGLQADDEADYYCSSYAGSSNLIFGGGTKLTVL",3.94
6,"C537 (antibody, V domains shown) VH: QLQLQESGPGLVKPSETLSLTCTVSGGAISSRNYHWGWIRQPPGKGLEWIGSIYYSGSTYYSPSLKSRVTISVDTSKNQFSLRLSSVTAADTAVYYCARLETSGWYTEDVFDIWGQGTMVTVSS VL: DIQMTQSPSSLSASVGDRVTITCRASQSISSYLNWYQQKPGKAPKLLIYAASSLQSGVPSRFSGSGSGTDFTLTISSLLPEDFATYYCQRSYSAMYTFGQGTKLEIK",41.9
7,"C533 (antibody, V domains shown) VH: EVQLVESGGSLVKPGGSLRLSCVASGLTFNHAWMSWVRQAPGKGLEWVGRIKSKIDGGTTDYAAPVKGRFTISRDDSKSTQYLQMNSLKTEDTAVYYCTTDCFWRLGGTTCYEHDAFDVWGQGTMVTVSS VL: DIQMTQSPSSLSASVGDRVTITCRASQAIATFLNWYQQKPGKAPKLLIYAASSLQSGVPSRFSGSGSGTDFTLTISNLQPEDFATYYCQQSYNSLHFGGGTKVEIK",1.61

# Target: T1, SARS-CoV-2 receptor-binding domain (WT RBD; S protein residues 319-539) (SARS-CoV-2, UniProt P0DTC2 319-539)
# T1 construct: also called SARS-COV-2 RBD
# Assay: BLI (Octet Red), IgG on protein A biosensor, WT RBD in solution, 1:1 fit
row,Binder,Kd [nM]
1,"C934 (antibody, V domains shown) VH: QVQLVQSGAEVKKPGASVKVSCKASGYTFTDYYIHWVRQAPGQGLEWMGWINPNSGGTNYAQKFQGRVTMTRDTSISTAYMDLSRLRSDDTAVYYCARDVIITMGRGVVFRMDVWGQGTTVTVSS VL: not shown",100
2,"C889 (antibody, V domains shown) VH: EVQLVESGGGLVQPGGSLRLSCAVSGFTVSSNYMTWVRQAPGKGLEWVSLIYSGTSAFYADSVKGRFTISRDNSKNTLYLQMSSLRVNDTAIYYCARDLRKDDGYSYGAFDYWGQGTLVTVSS VL: QSALTQPASVSGSPGQSITISCSGTSSDVGAHNYVSWYQQYPGKAPKLMIFDVTDRPSGVSNRFSGSKSGNTASLTISGLQAEDEADYYCTSYTTNRSWVFGGGTKVTVL",4.17
3,"C841 (antibody, V domains shown) VH: EVQLVESGGGLVQPGGSLRLSCAASGFTFSIFSMNWVRQAPGKGLEWISYISSSSGSRHYADSVKGRFTISRDNAKNSLYLQMNNLRDEDTAMYYCAREAHDGALTGYGDYLNWFDPWGQGVLVTVSS VL: SYELTQPPSVSVAPGKTARIPCGGDSVGSKSVHWYQQKSGQAPVLVIHSDSDRPSGIPERFSGSNSGNTATLTITGVAAGDEADYYCHVWDTIGDRFYWVFGGGTKLTVL",1.64
4,"C1010 (antibody, V domains shown) VH: QVQLVESGGGVVQPGRSLRLSCAASGFTFSSYAMHWVRQAPGKGLEWVAVISYDGSNKYYADSVKGRFTISRDNSKNTLYLQMNSLRAEDTAVYYCAKKGQPYCGGDCYFYYFDYWGQGTLVTVSS VL: DIQMTQSPSSLSASLGDRVTITCQASQDISNYLNWYQQKPGKAPKLLIYDASNLETGVPSRFSGSGSGTDFTFTISSLQPEDIATYYCQQYDNLPPITFGQGTRLEIK",62.5
5,"C1002 (antibody, V domains shown) VH: EVQLVESGGGLVQPGGSLRLSCAASEFIVSSNYMTWVRQAPGKGLEWVSIMYPGGSTFYADSVKGRFTISRDNSKNTLYLQINRLRAEDTAVYYCARDIAGRLDYWGQGTLVTVSS VL: DIQMTQSPSSLSASVGDRVTITCQASQDINNYLNWYQQKPGKAPKLLIYDASNLETGVPSRFSGSGSGTDFSFTISSLQPEDIATYYCQQYDNLSRLTFGGGTKVEIK",0.00196
6,"C1011 (antibody, V domains shown) VH: QVQLVESGGGVVQPGRSLRLSCAVSGFTFSHYAMHWVRQAPGKGLEWVAVISYDGADKYYADSVRGRFTIARDNSKNTLFLQMSSLRPEDTAVYYCAKKGQPYCGGDCHFYYLDYWGQGTLVTVSS VL: DIQMTQSPSSLSASVGDRVTITCQASQDISNHLNWYQQKPGKAPKLLIYDASNLETGVPSRFSGSGSGTDFTFTISSLQAEDIATYYCQQYDNLPPITFGQGTRLEIK",0.0833
7,"C888 (antibody, V domains shown) VH: EVQLVESGGGLVQPGGSLRLSCAASGFTVSSNYMSWVRQAPGKGLEWVSVIYSGGSAYYADSVKGRFTISRDNSKNTLYLQMNSLRAEDTAVYYCARDLRDQDGYSYGAFDYWGQGTLVTVSS VL: QSALTQPASVSGSPGQSITISCTGTSSDVGGYNYVSWYQQHPGKAPKLMIYDVSNRPSGVSNRFSGSKSGNTASLTISGLQAEDEADYYCSSYTSSSSWVFGGGTKLTVL",1390
8,"C871 (antibody, V domains shown) VH: EVQLVESGGGLIQTGGSLKLSCAASGFIVTNNYMSWVRQAPGKGLEWVSVIYSGGTTYYADSVKGRFTISRDISKNTLYLQMNSLKAEDTAVYYCAREGDVEGISDSWSGYSRDRYYFDHWGQGTLVTVSS VL: QSALTQPASVSGSPGQSITISCTGTSSDVGGYNYVSWYQQHPGKAPKLMIYDVSNRPPTISNRFSGSKSGNTASLIISGLQPEDEADYYCSSFTSNNTRVFGTGTKVTVL",3.7
9,"C916 (antibody, V domains shown) VH: EVQLVESGGGLVQPGGSLRLSCAASGFTFSNYDMHWVRQATGRGLEWVSTIGTAGDTYYPGSVKGRFTISRENAKNSLYLQMNSLRAGDTALYYCARVRYDSSGYFWSLDYWGQGTLVTVSS VL: not shown",3.45
10,"C917 (antibody, V domains shown) VH: EVQLVESGGGLVQPGGSLRLSCAASGFTFSNYDMHWVRQATGKGLDWVSTIGTAGDTYYPGSVKGRFTISRENAKNSLYLQMNSLRAGDTAVYYCARVRFDTSGYFWSLDYWGQGTLVTVSS VL: not shown",0.101
11,"C840 (antibody, V domains shown) VH: QVQLVESGGGVVQPGRSLRLSCEASGFTFTAYAMHWLRQAPGKGLEWVAVILNDGSNKLYADSVKGRFTVSRDNSKNMLYLQVNSLRVDDTAVYYCARDGSVDTLMVTWFDYWGQGTLVTVSS VL: DIQMTQSPSSLSASVGDRVTITCRASQSVNNYLNWYQQKPGQAPKLLIYAASSLQSGVPLRFSGSGSGTDFALTITSLHTEDFATYYCQQSYNTPPWTFGPGTKVEIK",5.56
12,"C936 (antibody, V domains shown) VH: EVQLVESGGGLIQPGGSLRLSCAASGFTVSSNYMSWVRQAPGKGLEWVSVIYSGGSTFYADSVKGRFTISRDNSKNTLYLQMNSLRAEDTAVYYCARDLGTGLFDYWGQGTLVTVSS VL: DIQLTQSPSFLSASVGDRVTITCRASQGISSYLAWYQQKPGKAPKLLIYAASTLQSGVPSRFSGSGSGTEFTLTISSLQPEDFATYYCQQLDSYPPGTFGPGTKVDIK",667
13,"C929 (antibody, V domains shown) VH: EVQLVESGGGLIQPGGSLRLSCAASGFTVSSNYMTWVRQAPGKGLEWVSVIYSGGTTYYADSVKGRFTISRDNSKNTLYLQMNSLRAEDTAVYYCARDLVVWGMDVWGQGTTVTVSS VL: DIQLTQSPSFLSASVGDRVTITCRASQGISSYLAWYQQKPGKAPKLLIYAASTLQSGVPSRFSGSGSGTEFTLTISSLQPEDFATYYCQLLNSYPYTFGQGTKLEIK",0.127
14,"C930 (antibody, V domains shown) VH: EVQLVESGGGLFQPGGSLRLACAASGITVSSNYMSWVRQPPGKGLEWVSVIYAGGSTFYADSVKGRLTISRDNSKNTLYLQINSLRAEDTAVYYCARDLVVWGMDVWGQGTTVTVSS VL: DIQLTQSPSFLSASVGDRVTITCRASQGISSYLAWYQQKPGKAPKLLIYAASTLQSGVPSRFSGSGSGTEFTLTISSLQPEDFATYYCQQLNTYPYTFGQGTKLEIK",0.323
15,"C937 (antibody, V domains shown) VH: EVQLVESGGGLIQPGGSLRLSCAASELTVSSNYMSWVRQAPGKGLEWVSVIYPGGSTFYADSVKGRFTISRDNSKNTLYLQMNSLRAEDTAVYYCARDLGTGLFDYWGQGTLVTVSS VL: DIQLTQSPSFLSASVGDRVTITCRASQGISSYLAWYQQKPGKAPKLLIYAASTLQSGVPSRFSGSGSGTEFTLTISSLQPEDFATYFCQLLNSNPPGTFGPGTKVDIK",3.03
16,"C1003 (antibody, V domains shown) VH: QVQLVESGGGVVQPGRSLRLSCAASGFAFSSYGMNWVRQAPGKGLEWVTTVSSDGNVNYYIDSVKGRFTISRDNSKNTLYLQMNSLRGDDTAVYYCAKGPRFGWSYRGGSGFDIWGQGTMVTVSS VL: DIQMTQSPSSLSASVGDRVTITCQASQDISNYLNWYQQKPGKAPKLLIYDASNLETGVPSRFSGSGSGTDFTFTITSLQPEDIATYYCQQYDNLPITFGQGTRLEIK",90.9
